# According to the nanobody polyreactivity screen of Harvey et al. (2022):
# Experiment: yeast display, Sf9 membrane polyspecificity reagent, FACS + sequencing; frameworks hold sequencing errors
# How it was run: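 After 36–48 hours of galactose induction, yeast (Saccharomyces cerevisiae BJ5465) displaying a synthetic nanobody library were stained at 4 °C for 1 hour with 10% biotinylated, detergent-solubilized Sf9 membrane reagent. Streptavidin microbeads enriched the stained cells before FACS sorting into low and high (top ~1%) gates on anti-HA and streptavidin fluorescence. Each clone's polyreactivity label reflects its gate of origin.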
row,Sequence,polyreactivity (PSR sort gate)
1,QVQLVESGGGLVQAGGSLRLSCAASGRIFGPYAMGWYRQAPGKERELVAAISWSGGSTYYADSVKGRFTISRDNAKNTVYLQMNSLKPEDTAVYYCAARERRVYGDRFYKLDYWGQGTQVTVSS,high polyreactivity
2,QVQLVESGGGLVQAGGSLRLSCAASGRIFGPYTMGWYRQAPGKERELVAAISWSGGSTYYADSVKGRFTISRDNAKNTVYLQMNSLKPEDTAVYYCNADHPFPQYEGGSWGQGTQVTVSS,low polyreactivity
3,QVQLVESGGGLVQAGGSLRLSCAASGRIFGPYTMGWYRQAPGKERELVARISRRGGSTYYADSVKGRFTISRDNAKNTVYLQMNSLKPEDTAVYYCARSQAVYDGWFAKFGYWGQGTQVTVSS,low polyreactivity
4,QVQLVESGGGLVQAGGSLRLSCAASGRIFGRNAMGWYRQAPGKERELVAAISSSGGRTYYADSVKGRFTISRDNAKNTVYLQMNSLKPEDTAVYYCAAVGSLYYYRYDYWGQGTQVTVSS,high polyreactivity
5,QVQLVESGGGLVQAGGSLRLSCAASGRIFGRNTMGWYRQAPGKERELVAVISFRGGSTYADSVKGRFTISRDNAKNTVYLQMNSLKPEDTAVYYCARTAYSTRPYRFDYWGQGTQVTVSS,high polyreactivity
6,QVQLVESGGGLVQAGGSLRLSCAASGRIFGRYAMGWYRQAPGKERELVAAISRRGGTTYYADSVKGRFTISRDNAKNTVYLQMNSLKPEDTAVYSSNADTYGYGFDYWGQGTQVTVSS,high polyreactivity
7,QVQLVESGGGLVQAGGSLRLSCAASGRIFGRYAMGWYRQAPGKERELVASIRSRGGSTYYADSVKGRFTISRDNAKNTVYLQMNSLIPEDTAVYYCAKTVTSGYYYAGRYDYWGQGTQVTVSS,high polyreactivity
8,QVQLVESGGGLVQAGGSLRLSCAASGRIFGRYAMGWYRQAPGKERELVASISTGGGGTYYADSVKGRFTISRDNAKNTVYLQMNSLKPEDTAVYYCAKAWRGFWTKYDYWGQGTQVTVSS,low polyreactivity
9,QVQLVESGGGLVQAGGSLRLSCAASGRIFGRYAMGWYRQAPGNERELVAAISSTGGRTYYADSVKGRFTISRDNAKNTVYLQMTSLKPEDTAVYYCAATYVHYPSMGYDYWGQGTQVTVSS,high polyreactivity
10,QVQLVESGGGLVQAGGSLRLSCAASGRIFGRYTMGWYRQAPGKERELVAAISARGGSPNYADSVKGRFTISRDNAKNTVYLQLNSLIPEDTAVYYCNTVRVHGFPIDRIYDYWGQVTQVTVSS,high polyreactivity
11,QVQLVESGGGLVQAGGSLRLSCAASGRIFGSYAMGSYRQAPGKERELVAAINWRGGSTFYADSVKGRFTISRDNAKNTVYLQMNSLKPEDTAVYYCARRGYRQSGDYWGQGTQVTVSS,low polyreactivity
12,QVQLVESGGGLVQAGGSLRLSCAASGRIFGSYAMGWYIQAPGTERELVAAINRRGGSTFYADSVKGRFTISRDNAKNSVYLQMNSLKPEDTAVYYCARRGYRQSGDYWGQGTQVTLSS,low polyreactivity
13,QVQLVESGGGLVQAGGSLRLSCAASGRIFGSYAMGWYRQAPGKERELVAAINWRGGSTFYADSVKGRFTISRDNAKNTVYLQMNSLKPEDTAVYYCARRGYRQSGDYWGQGTEVTVSS,low polyreactivity
14,QVQLVESGGGLVQAGGSLRLSCAASGRIFGSYAMGWYRQAPGKERELVAAISGGGSTNYADSVKGRFTISRDNAKNTVYLQMNSLKPEDSAVYYCTADRGFAVIVLYGYWGQGTQVTVSS,low polyreactivity
15,QVQLVESGGGLVQAGGSLRLSCAASGRIFGSYAMGWYRQAPGKERELVAAISRSGVSTYYADSVKGRFTISRDNAKNTVYLQMNSLKPEDTAVYYCAAYYRYASDYWGQGTQVTVSS,low polyreactivity
16,QVQLVESGGGLVQAGGSLRLSCAASGRIFGSYAMGWYRQAPGKERELVAAISWRGTSTYYADSVKGRFTISRDNAKNTVYLQMNSLIPEDTAVYYCAARGLWPYDYWGQGSQVTVSS,low polyreactivity
